Where two headings read alike, the source gives them in different places.

In data set [1] the test system is IgE (immunoglobulin E, monoclonal, kappa light chain) (Homo sapiens). Conditions: CE-UV binding assay up to 1.1 uM IgE; round 1 pool 67% bound; PBS, 1 mM MgCl2, pH 8.0, 25 C.
For data set [2] the test system is unchanged. The conditions noted are these: CE-UV binding assay up to 2.5 uM IgE; round 1 pool 33% bound; PBS, 1 mM MgCl2, pH 8.0, 25 C.
Data set [3] shares this test system. Conditions: affinity capillary electrophoresis with LIF; PBS, 1 mM MgCl2, 35 mM NaCl, pH 8.0, 25 C.
For data set [4] the test system is unchanged. The conditions noted are these: affinity capillary electrophoresis with LIF; PBS, 1 mM MgCl2, 40 mM NaCl, pH 8.0, 25 C.
For data set [5] the test system is unchanged. The conditions noted are these: CE-UV binding assay; rounds 1, 2, 3 gave 62, 96, ~100% bound; PBS, 1 mM MgCl2, pH 8.0, 25 C.
Data set [6] shares this test system. The conditions noted are these: affinity capillary electrophoresis with LIF; PBS, 1 mM MgCl2, pH 8.0, 25 C; literature value 10 nM; cited from earlier work.

In data set [1], “AGCAGCACAGAGGTCAGATGNNNNNNNNNNNNNNNNNNNNNNNNNNNNNNNNNNNNNNNNCCTATGCGTGCTACCGTGAA [CE-SELEX experiment 2 round 2 enriched pool]” registered a binding of 100 % bound.
In data set [2], “AGCAGCACAGAGGTCAGATGNNNNNNNNNNNNNNNNNNNNNNNNNNNNNNNNNNNNNNNNCCTATGCGTGCTACCGTGAA [CE-SELEX experiment 1 round 2 enriched pool]” gave a binding of 100 % bound.
What is called Kd is the concentration at which binding is half-saturated. With “AGCAGCACAGAGGTCAGATGGTAATTTTCGCTGCGATTAGGCTTGTGACAAAATTACTATCCTATGCGTGCTACCGTGAA [Clone 1.8]”, the equilibrium dissociation constant (Kd) in data set [3] was found to be 293 nM.
“AGCAGCACAGAGGTCAGATGGATGGGGGGGTCTAACGTGCGATCTGCCGACTTTATCCTGCCTATGCGTGCTACCGTGAA [Clone 2.27]” yielded a Kd in data set [4] of 52 nM.
In data set [5], “AGCAGCACAGAGGTCAGATGNNNNNNNNNNNNNNNNNNNNNNNNNNNNNNNNNNNNNNNNCCTATGCGTGCTACCGTGAA [CE-SELEX experiment 3 round 4 enriched pool]” registered a binding of 100 % bound.
As to “CTACCTACGATCTGACTAGCGGGGCACGTTTATCCGTCCCTCCTAGTGGCGTGCCCCGCTTACTCTCATGTAGTTCC [conventional SELEX IgE aptamer]”, the equilibrium dissociation constant (Kd) in data set [6] was 4 nM.
